Data as given in patent US8603466 (KING S COLLEGE LONDON, dated 2013).
Positions count from the first letter of the chain named. One block for each binder: values may come before it.

How the values were obtained:
[1] = target: T1, human TSHR immobilised on coated tubes (TRAK II [DYNOtest human] kit) (human, UniProt P16473 21-764, limits assumed); experiment: TBII assay, displacement of 125I-TSH from human TSHR coated tubes (TRAK II DYNOtest human)
T1 construct: Receptor of a bought kit; also called human TSHR coated tubes; immobilized human TSHR

[2] = target: T1, human TSHR immobilised on coated tubes …; experiment: saturation binding of 125I-IgG on human TSHR coated tubes (TRAK II DYNOtest human); printed as Kd but expressed as reciprocal Kd (L/mol)
Protocol: Free isotope was removed by gel filtration in SEPHAROSE™ G25 columns and specific activity calculated (7). Antibody affinity was measured by saturation binding analysis. […] The affinity results were expressed as reciprocal Kd values (L/mol).
The labeled IgG and Fab fragments of the mabs were then used as tracers in competition studies to study the epitopes on the receptor. […] Serum from normal individuals, with no family history of autoimmunity were used as controls.

[3] = target: human TSHR on stably transfected CHO cells (human, UniProt P16473 21-764); experiment: cell-based or functional assay

- IC50 [1]: 3.3 ng/mL
- Ka [2]: 4.5e+10 M⁻¹
- EC50 of cAMP stimulation, NaCl-free sucrose HBSS [3]: 9.4 ng/mL
- EC50 of cAMP stimulation, physiological NaCl HBSS [3]: 16.5 ng/ml
- IgG concentration giving 3 fold cAMP stimulation [3]: 1.2 ng/mL
- maximal stimulation of cAMP, fold over basal value [3]: 199 fold over basal
B1: KSAb1 IgG (antibody, V domains shown)
VH: EVQLQQSGPELVKPGASMKISCKASGYSFSAYTMNWVKQSHGKNLEWIGLINPYNGGTNYNQEFEGKATLTVNKSSNTAFMELLSLTSDDSAVYYCARRDWDYFDYWGQGTTLTVSS
VL: DIVMTQSQKFMSTSVGDRVSIICKASQNVGTFVAWYQQKPGQSPKLLVYSASNRYTGVPDRFTGSGSGTDFTLTINNMQSEDLADYFCRQYSSYPYTFGGGTKLEI
notes: also called mAb9; IgG 9

- IC50 [1]: 10 ng/mL
- Ka [2]: 6.25e+10 M⁻¹
- EC50 of cAMP stimulation, NaCl-free sucrose HBSS [3]: 93 ng/mL
- EC50 of cAMP stimulation, physiological NaCl HBSS [3]: 100 ng/ml
- IgG concentration giving 3 fold cAMP stimulation [3]: 2.2 ng/mL
- maximal stimulation of cAMP, fold over basal value [3]: 183 fold over basal
B2: KSAb2 IgG (antibody, V domains shown)
VH: B1 VH with S30T, S40T, E63K, G66D, N73D, F80Y, E82D, D89E
VL: DVVMTQSQKFLSTSAGDRVSISCKASQNVGTALAWYQQKPGQSPKLLIYSASNRNTGVPDRFTGRGFGTDFTLTISNMQSEDLADYFCQQYSSYPYTFGGGTRLEI
notes: also called mAb17; IgG17
